Reference: the supplement of paper PMC10065799, “High-throughput profiling of sequence recognition by tyrosine kinases and SH2 domains using bacterial peptide display” (eLife, 2023)

biological target: Fes (UniProt P07332); test: phosphorylation enrichment, bacterial display (enrichment ratio); higher = better substrate or ligand; peptides without Tyr show the background
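Further: 11-residue human phosphosite peptides and single-mutation variants displayed on the E. coli surface, counted by deep sequencing, each peptide's frequency after selection divided by its frequency in the unselected input library; frequency after pTyr selection over input frequency; kinase dosed for 20-30% of maximal phosphorylation in three min.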

Chain of Fes (P07332 whole entry, looked up): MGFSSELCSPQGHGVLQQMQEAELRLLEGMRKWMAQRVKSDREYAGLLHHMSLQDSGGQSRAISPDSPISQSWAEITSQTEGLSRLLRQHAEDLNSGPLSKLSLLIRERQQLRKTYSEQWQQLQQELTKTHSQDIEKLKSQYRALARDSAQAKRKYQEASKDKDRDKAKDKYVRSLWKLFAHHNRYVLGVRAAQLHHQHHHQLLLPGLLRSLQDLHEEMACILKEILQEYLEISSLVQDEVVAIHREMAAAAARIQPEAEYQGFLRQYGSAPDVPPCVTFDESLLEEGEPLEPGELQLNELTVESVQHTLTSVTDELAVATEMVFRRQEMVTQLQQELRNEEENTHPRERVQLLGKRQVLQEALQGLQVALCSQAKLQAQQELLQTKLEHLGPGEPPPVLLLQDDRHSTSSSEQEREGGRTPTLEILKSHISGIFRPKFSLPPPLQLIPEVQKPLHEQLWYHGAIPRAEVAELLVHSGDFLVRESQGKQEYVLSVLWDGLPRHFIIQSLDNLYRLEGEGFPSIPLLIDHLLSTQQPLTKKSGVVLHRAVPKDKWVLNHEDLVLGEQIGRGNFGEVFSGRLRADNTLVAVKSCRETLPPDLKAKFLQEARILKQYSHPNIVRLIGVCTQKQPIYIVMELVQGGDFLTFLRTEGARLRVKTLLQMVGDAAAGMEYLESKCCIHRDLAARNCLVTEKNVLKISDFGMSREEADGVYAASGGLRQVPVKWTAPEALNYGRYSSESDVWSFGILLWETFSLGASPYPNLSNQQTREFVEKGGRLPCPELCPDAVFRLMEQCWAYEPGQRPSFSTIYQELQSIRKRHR

| Sequence | phosphorylation enrichment |
| --- | --- |
| VHNLDYFKETT [FGFR3_Y647_K650E_YF] | 0.854 |
| TCFDKYTGNTF [FN1_Y101_YF] | 1.18 |
| IHTDAYVRAMT [RPE65_Y89_R85H] | 0.589 |
| YCRITYDIFPF [INTS13_Y67_M66T] | 1.59 |
| LFIGQYSGKKE [L1CAM_Y1229_S1224L] | 2.22 |
| KVDKECEVRVR [GHR_Y226_Y226C] | 0.832 |
| WRRLIYRCQVG [NR2E3_Y81_R76W] | 0.784 |
| IQKWEYVPLGP [FAH_Y244] | 1.01 |
| EWKNNYPRLRE [OPA1_Y582] | 0.607 |
| RLPNGYGLAFR [DLK1_Y262_S260N_YF] | 1.06 |
| ATARPYSPYII [LRP5_Y1528_R1529S] | 0.731 |
| HKLSFNEFDFE [BTK_Y40_Y40N_YF] | 1.58 |
| HLDRSYSYSYS [PEAR1_Y890_R885H] | 0.583 |
| KLVRLYAVVTR [LYN_Y306] | 1.14 |
| HFVDEYDPTIE [KRAS_Y32] | 1.79 |
| ISKQEYDEAGP [ACTC1_Y364] | 1.29 |
| RIFDYYSARKT [STOX1_Y858_A863T] | 0.665 |
| GANSEYIIAEK [ECHS1_Y35_F33S] | 1.01 |
| DRLASYLDKLR [KRT12_Y139_V143L] | 0.894 |
| PNRILYGDFWQ [MYH6_Y717_R721W] | 1.29 |
| LEFNEYFRDLN [HPRT1_Y198_D194E_YF] | 1.66 |
| IDQDKYAVRFI [FLNA_Y2388] | 0.787 |
| RGRSTCYWPRP [GAGE12J_Y9_Y9C] | 0.756 |
| LTTEAYEWEPR [ELMOD3_Y61] | 1.89 |
| ETGNLYIAKVE [CNTN4_Y180] | 0.89 |
| QNTVDYYDLYG [PTPN11_Y62_G60V] | 1.66 |
| EAAFVYAISSA [WNT4_Y113] | 1.3 |
| HKLSFYEFDFE [BTK_Y40_YF] | 1.73 |
| VFAPDYIAGVS [NOB1_Y366] | 1.38 |

biological target: MERTK (UniProt Q12866); test: as above
Sequence (Q12866 whole entry, looked up): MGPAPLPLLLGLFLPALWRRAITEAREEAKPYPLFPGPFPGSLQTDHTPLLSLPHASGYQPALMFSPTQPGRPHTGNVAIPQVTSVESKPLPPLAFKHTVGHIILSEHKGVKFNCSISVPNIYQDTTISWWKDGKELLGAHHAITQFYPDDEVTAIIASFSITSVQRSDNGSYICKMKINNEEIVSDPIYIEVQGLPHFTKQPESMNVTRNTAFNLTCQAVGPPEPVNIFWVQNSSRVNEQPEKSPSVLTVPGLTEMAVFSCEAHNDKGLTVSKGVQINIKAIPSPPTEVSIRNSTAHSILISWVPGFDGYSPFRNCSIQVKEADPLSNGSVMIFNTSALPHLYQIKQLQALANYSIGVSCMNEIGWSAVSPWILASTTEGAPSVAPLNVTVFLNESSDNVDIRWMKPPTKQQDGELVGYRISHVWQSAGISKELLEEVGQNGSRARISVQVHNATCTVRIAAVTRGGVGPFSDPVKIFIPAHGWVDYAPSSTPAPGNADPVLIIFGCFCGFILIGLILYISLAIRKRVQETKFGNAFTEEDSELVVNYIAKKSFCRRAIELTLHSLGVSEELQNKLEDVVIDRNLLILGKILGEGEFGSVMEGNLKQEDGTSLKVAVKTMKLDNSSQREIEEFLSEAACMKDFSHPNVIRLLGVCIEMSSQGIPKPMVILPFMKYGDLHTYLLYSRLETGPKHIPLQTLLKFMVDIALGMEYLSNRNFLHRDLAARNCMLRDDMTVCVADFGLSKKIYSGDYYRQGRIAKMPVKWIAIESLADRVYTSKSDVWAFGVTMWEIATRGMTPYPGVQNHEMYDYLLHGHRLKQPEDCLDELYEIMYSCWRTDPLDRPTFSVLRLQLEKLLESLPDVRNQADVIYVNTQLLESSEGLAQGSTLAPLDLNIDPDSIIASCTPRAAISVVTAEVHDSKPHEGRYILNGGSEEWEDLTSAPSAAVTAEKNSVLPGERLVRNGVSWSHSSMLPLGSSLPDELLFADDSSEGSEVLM

| Sequence | phosphorylation enrichment |
| --- | --- |
| VHNLDYFKETT [FGFR3_Y647_K650E_YF] | 0.425 |
| TCFDKYTGNTF [FN1_Y101_YF] | 0.501 |
| IHTDAYVRAMT [RPE65_Y89_R85H] | 0.319 |
| YCRITYDIFPF [INTS13_Y67_M66T] | 2.83 |
| LFIGQYSGKKE [L1CAM_Y1229_S1224L] | 0.972 |
| KVDKECEVRVR [GHR_Y226_Y226C] | 0.355 |
| WRRLIYRCQVG [NR2E3_Y81_R76W] | 0.484 |
| IQKWEYVPLGP [FAH_Y244] | 0.597 |
| EWKNNYPRLRE [OPA1_Y582] | 0.404 |
| RLPNGYGLAFR [DLK1_Y262_S260N_YF] | 0.51 |
| ATARPYSPYII [LRP5_Y1528_R1529S] | 0.375 |
| HKLSFNEFDFE [BTK_Y40_Y40N_YF] | 0.712 |
| HLDRSYSYSYS [PEAR1_Y890_R885H] | 0.583 |
| KLVRLYAVVTR [LYN_Y306] | 0.497 |
| HFVDEYDPTIE [KRAS_Y32] | 0.724 |
| ISKQEYDEAGP [ACTC1_Y364] | 0.518 |
| RIFDYYSARKT [STOX1_Y858_A863T] | 1.37 |
| GANSEYIIAEK [ECHS1_Y35_F33S] | 0.581 |
| DRLASYLDKLR [KRT12_Y139_V143L] | 0.45 |
| PNRILYGDFWQ [MYH6_Y717_R721W] | 0.849 |
| LEFNEYFRDLN [HPRT1_Y198_D194E_YF] | 0.795 |
| IDQDKYAVRFI [FLNA_Y2388] | 0.379 |
| RGRSTCYWPRP [GAGE12J_Y9_Y9C] | 0.732 |
| LTTEAYEWEPR [ELMOD3_Y61] | 0.724 |
| ETGNLYIAKVE [CNTN4_Y180] | 0.336 |
| QNTVDYYDLYG [PTPN11_Y62_G60V] | 1.33 |
| EAAFVYAISSA [WNT4_Y113] | 0.566 |
| HKLSFYEFDFE [BTK_Y40_YF] | 1.75 |
| VFAPDYIAGVS [NOB1_Y366] | 0.547 |

system: Fer (mouse); test: as above

| Sequence | phosphorylation enrichment |
| --- | --- |
| VHNLDYFKETT [FGFR3_Y647_K650E_YF] | 0.438 |
| TCFDKYTGNTF [FN1_Y101_YF] | 0.647 |
| IHTDAYVRAMT [RPE65_Y89_R85H] | 0.407 |
| YCRITYDIFPF [INTS13_Y67_M66T] | 0.785 |
| LFIGQYSGKKE [L1CAM_Y1229_S1224L] | 0.901 |
| KVDKECEVRVR [GHR_Y226_Y226C] | 0.478 |
| WRRLIYRCQVG [NR2E3_Y81_R76W] | 0.489 |
| IQKWEYVPLGP [FAH_Y244] | 0.454 |
| EWKNNYPRLRE [OPA1_Y582] | 0.4 |
| RLPNGYGLAFR [DLK1_Y262_S260N_YF] | 0.737 |
| ATARPYSPYII [LRP5_Y1528_R1529S] | 6.92 |
| HKLSFNEFDFE [BTK_Y40_Y40N_YF] | 0.788 |
| HLDRSYSYSYS [PEAR1_Y890_R885H] | 0.401 |
| KLVRLYAVVTR [LYN_Y306] | 0.474 |
| HFVDEYDPTIE [KRAS_Y32] | 0.886 |
| ISKQEYDEAGP [ACTC1_Y364] | 0.627 |
| RIFDYYSARKT [STOX1_Y858_A863T] | 0.441 |
| GANSEYIIAEK [ECHS1_Y35_F33S] | 0.468 |
| DRLASYLDKLR [KRT12_Y139_V143L] | 0.479 |
| PNRILYGDFWQ [MYH6_Y717_R721W] | 0.626 |
| LEFNEYFRDLN [HPRT1_Y198_D194E_YF] | 0.769 |
| IDQDKYAVRFI [FLNA_Y2388] | 0.473 |
| RGRSTCYWPRP [GAGE12J_Y9_Y9C] | 0.582 |
| LTTEAYEWEPR [ELMOD3_Y61] | 1.07 |
| ETGNLYIAKVE [CNTN4_Y180] | 0.441 |
| QNTVDYYDLYG [PTPN11_Y62_G60V] | 1.1 |
| EAAFVYAISSA [WNT4_Y113] | 0.649 |
| HKLSFYEFDFE [BTK_Y40_YF] | 0.919 |
| VFAPDYIAGVS [NOB1_Y366] | 0.647 |

biological target: FGFR3 (UniProt P22607); test: as above
Sequence (P22607 whole entry, looked up): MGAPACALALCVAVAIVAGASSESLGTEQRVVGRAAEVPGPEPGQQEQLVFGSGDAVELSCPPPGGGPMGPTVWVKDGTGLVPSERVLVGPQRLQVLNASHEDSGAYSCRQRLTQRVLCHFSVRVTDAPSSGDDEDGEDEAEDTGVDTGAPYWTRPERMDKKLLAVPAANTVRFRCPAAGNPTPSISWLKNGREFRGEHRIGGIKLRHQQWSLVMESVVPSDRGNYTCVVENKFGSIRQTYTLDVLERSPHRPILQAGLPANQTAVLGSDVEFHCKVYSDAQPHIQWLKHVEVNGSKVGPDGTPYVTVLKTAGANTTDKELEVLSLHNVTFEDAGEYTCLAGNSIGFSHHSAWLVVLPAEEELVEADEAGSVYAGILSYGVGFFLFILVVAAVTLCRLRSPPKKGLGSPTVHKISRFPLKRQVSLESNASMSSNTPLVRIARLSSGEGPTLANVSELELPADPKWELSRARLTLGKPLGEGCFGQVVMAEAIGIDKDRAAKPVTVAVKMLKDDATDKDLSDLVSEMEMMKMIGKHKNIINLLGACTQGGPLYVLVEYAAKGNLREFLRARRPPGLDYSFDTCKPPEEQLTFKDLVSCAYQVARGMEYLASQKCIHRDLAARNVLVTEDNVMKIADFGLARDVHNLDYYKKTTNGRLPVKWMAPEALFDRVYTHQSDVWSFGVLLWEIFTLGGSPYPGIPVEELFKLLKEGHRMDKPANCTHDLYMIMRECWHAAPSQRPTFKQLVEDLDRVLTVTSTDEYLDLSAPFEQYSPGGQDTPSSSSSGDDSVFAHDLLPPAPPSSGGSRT

| Sequence | phosphorylation enrichment |
| --- | --- |
| VHNLDYFKETT [FGFR3_Y647_K650E_YF] | 0.614 |
| TCFDKYTGNTF [FN1_Y101_YF] | 0.92 |
| IHTDAYVRAMT [RPE65_Y89_R85H] | 0.401 |
| YCRITYDIFPF [INTS13_Y67_M66T] | 1.38 |
| LFIGQYSGKKE [L1CAM_Y1229_S1224L] | 1.13 |
| KVDKECEVRVR [GHR_Y226_Y226C] | 0.556 |
| WRRLIYRCQVG [NR2E3_Y81_R76W] | 0.515 |
| IQKWEYVPLGP [FAH_Y244] | 0.822 |
| EWKNNYPRLRE [OPA1_Y582] | 0.483 |
| RLPNGYGLAFR [DLK1_Y262_S260N_YF] | 0.858 |
| ATARPYSPYII [LRP5_Y1528_R1529S] | 0.727 |
| HKLSFNEFDFE [BTK_Y40_Y40N_YF] | 0.882 |
| HLDRSYSYSYS [PEAR1_Y890_R885H] | 0.66 |
| KLVRLYAVVTR [LYN_Y306] | 0.794 |
| HFVDEYDPTIE [KRAS_Y32] | 0.888 |
| ISKQEYDEAGP [ACTC1_Y364] | 0.819 |
| RIFDYYSARKT [STOX1_Y858_A863T] | 0.48 |
| GANSEYIIAEK [ECHS1_Y35_F33S] | 0.61 |
| DRLASYLDKLR [KRT12_Y139_V143L] | 0.597 |
| PNRILYGDFWQ [MYH6_Y717_R721W] | 0.935 |
| LEFNEYFRDLN [HPRT1_Y198_D194E_YF] | 1.95 |
| IDQDKYAVRFI [FLNA_Y2388] | 0.545 |
| RGRSTCYWPRP [GAGE12J_Y9_Y9C] | 0.981 |
| LTTEAYEWEPR [ELMOD3_Y61] | 1.06 |
| ETGNLYIAKVE [CNTN4_Y180] | 0.62 |
| QNTVDYYDLYG [PTPN11_Y62_G60V] | 15.4 |
| EAAFVYAISSA [WNT4_Y113] | 0.749 |
| HKLSFYEFDFE [BTK_Y40_YF] | 1.36 |
| VFAPDYIAGVS [NOB1_Y366] | 0.807 |
